Measured values taken from the nanobody polyreactivity screen of Harvey et al. (2022).

Assay: yeast display, Sf9 membrane polyspecificity reagent, FACS + sequencing; frameworks hold sequencing errors
Procedure, shortened: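 A nanobody's polyreactivity label depends on the gate it was sorted from. Yeast display cells were stained with 10% biotinylated, detergent-solubilized Sf9 membrane reagent for 1 hour at 4 °C, enriched on streptavidin microbeads and sorted by FACS. The low and high (top ~1%) gates were set on anti-HA fluorescence for expression and streptavidin fluorescence for reagent binding.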
With “QVQLVESGGGLVQAGGSLRLSCAASGSTFYYYAMGWYRQAPGKERELVAAIDRDDRTNYADSVKGRFTISRDNAKNTVYLQMNSLKPEDTAVYYCAAVEIYEYDYWGQGTQVTVSS” the “polyreactivity (PSR sort gate)” value was “low polyreactivity”. For “QVQVVESGGGFVQAGGSLRISCAASGRIFATYAMGWYRQAPGKERELVAAISDSGGRTYYADSVKGRFTISRDTAKNTVYFQMNSLKPEDTAVYYCNARGTRASRYDYWGQGTQVTVSS”, the “polyreactivity (PSR sort gate)” value was “high polyreactivity”. For “QVQLVESGGGLVQAGGSLRLSCAASGRTFRFYVMGWYRQAPGKERELVAVIRYRGGSTYYADSVKGRFTISRDNAKNTVYLHMNSLTPEDTAVYYCNADFLLAGNEYDYWGQGTQVTVSS”, the “polyreactivity (PSR sort gate)” value was “high polyreactivity”. With “QVQLVESGGGLVQAGGSLRLSCAASGSTFDYNTMGWYRQAPGKERELVAAISESGGSTYYADSVKGRFTISRDNAKNTVYLQMNSLKPEDTAVYYCATDDFGGYFGEYDYWGQGTQVTVSS” the “polyreactivity (PSR sort gate)” value was “low polyreactivity”. For “QVQLVESGGGLVQAGGSLRLSCADSGSTFYYYAMGWYRQAPGKERELVAAISTSGGSTYYADSVKGRFTISRDNAKNTVYFQMNSLKPEDTAVYYCAARYRRGMGYWGQGTQVTVSS”, the “polyreactivity (PSR sort gate)” value was “high polyreactivity”. In the case of “QVQLVESGGGLVQAGGSLRLSCAASGFIFQHYAMGWYRQAPGKERELVAAISKSGGSTYYADSVKGRFTISRDNAKNTVYLQMNSLKPEDTAVYYCAKVAVAGRGSGNYINHRFDYWGQGTQVTVSS”, the “polyreactivity (PSR sort gate)” value is reported as “high polyreactivity”. In the case of “QVQLVESGGGKVQAGGSLRLSCAASGFILSRNAMGWYRQAPGKERELVAAISRSGTRTYYADSVKGRFTISRDNEQNTVYLQMNSLKPEDTAVYYCARVSKRTWTGYYYWGQGTQVTVSS”, the “polyreactivity (PSR sort gate)” value is reported as “high polyreactivity”. With “QVQLVESGGGLVQAGGSLRLSCAASGFIFITVNAMGWYRQAPGKEREFVAAITRSGTGTYYADSVKGRFTISRDNAKNTVYLQMNSLKPVDTAVYYCAADATSTGAYDYWGQGTQVTVSS” the “polyreactivity (PSR sort gate)” value was “low polyreactivity”. For “QVQLEESGGGLVQAGGRLRLTCAASGLTFYANAMGWYRQAPGKERELVATISVGTDSTNYADSVKGRFTISRDNAKNTVYLQMTSMKPEDTAVYYCKALYEEYYAQDPYDYWGQGTQVTVSS”, the “polyreactivity (PSR sort gate)” value was “high polyreactivity”. With “QDQLGDSGGGLVQAGGSLRLSCAASGSTYSVYTMGWYRQAPGKERELVAGITSNAGSTYYADSVKGRFTISRDNAMNTVYLEMNRLKPEDTAVYYCNADRWVRTTYDYWGQGTQVTVSS” the “polyreactivity (PSR sort gate)” value was “high polyreactivity”. With “QVQLVESGGGLVQAGGSLRLSCAASGRILILNAMGWYRQAPGKERELVAAITNGGSTNYADSVKGRFTISRDNAKNSVYLQMNSLKPEDTAVYYCAARLYSYDYYTVLKLFDYWGQGTQVTVSS” the “polyreactivity (PSR sort gate)” value was “low polyreactivity”. With “QVQLVESGGGLVQAGGSLRLSCAASGFTFGKYDMGWYRQAPGKERELVATITSSGDSTYYADSVKGRFTISRDNAKNTVYLQMNSLKPEDTAVYYCATPYGRHGWFYLYDYWGQGTQVTVSS” the “polyreactivity (PSR sort gate)” value was “low polyreactivity”. With “QVQLVESGGGLVQAGGSLRLSCAASGITFAYYVMGWYRQAPGKERELVAAINWSGGSTYYADSVKGRFTISRDNAKNTVYLQMNSLKPEDTAVYYCAADWSTWYGEKFYWGHGTQVTVSS” the “polyreactivity (PSR sort gate)” value was “high polyreactivity”. With “QVQLVESGGGLVQAGGSLRLSCAASGFTFYTYTMGWYRQAPGKERELVAVISRSGGSTYYADSVKGRFTISRDNAKNTVYLQMNSLKPEDTAVYYCNKVGIYGSRSRYDSWGQGTQVTVSS” the “polyreactivity (PSR sort gate)” value was “high polyreactivity”. For “QVQLVESGGGLVQAGGSLRLSCAASGRTFDFYAMGWYRQAPGKERELVASIDWDGGSTYYADSVKGRFTISRDNAKNTVYLQMNSLKPEDTAVYYCAKDGQKFTSSLYDYWGQGTQVTVSS”, the “polyreactivity (PSR sort gate)” value was “low polyreactivity”. With “QVLLVESGGGLVQAGGSLRLSCAASGRTLRGYAMGWYRQAPGKERELVAAITWSGGSTYYADSVKGRFTISRDHAKNTVYLQMNSLKPEDTAVYYCNARSYPDLYDYWGQGTQVTVSS” the “polyreactivity (PSR sort gate)” value was “low polyreactivity”. In the case of “QVQLVESGGGLVQAGGSLRLSCAASGSILGANAMGWYRQAPGKERELVAAISYRGGSTYYADSVKGRFTISRDNAKNTVYLQMNSLKPEDTAVYYCAAVVPTGYDYWGQGTQVTVSS”, the “polyreactivity (PSR sort gate)” value is reported as “low polyreactivity”. With “QVQLVESGGGLDQAGGSLRLSCAASGVNAMGWYRQAPGKEREFVAAITSIGGSTYYADSVKGRFTISRDNAKNTVYLQMNRLKPEDTAVYYCNPDSGPVKVSPLYESWGQGTQVTVSS” the “polyreactivity (PSR sort gate)” value was “low polyreactivity”. With “QVHLVESGGGLVQAGGSLRLSCAASGRTFRVNAMGWNRKAPGKERELLAAISSRGGTTYYADSVKGRCTISSDYAKNTLYLQMYSLKAEDTAVYYCAAASDRDFPFDYWGQGTQVSVSS” the “polyreactivity (PSR sort gate)” value was “high polyreactivity”. With “QVQLVESVGCLVQARGSLRLSSAASGLIFPKYAMGWYRPAHGKERELVAAISSSGGSTYYADSVMGRFTISRVNAKNTVYLQMNSLKPEDTAVYYCAAKRFTTVTGYGYWGQGTQVTVSS” the “polyreactivity (PSR sort gate)” value was “high polyreactivity”. In the case of “QVQLVESGGGLVQAGGSLRLSCAASGFTFSHYAMGWYRQAPGKEMELVAAITWSGGSTYYADSVKGRFTISRDNAKNTVYLQMNSLKPEDTAVYYCAAESYLDGGDYWGQGTQVTVSS”, the “polyreactivity (PSR sort gate)” value is reported as “high polyreactivity”. In the case of “QVQLVESGGGLVQAGGSLRLSCAASGIIFYYYAMGSDRQAPGKERELVAAITSSGVRTYYADSVKGRFTISRDNAKNTVYLQMNSLKPEDTAVYYCAASSVLYSRSYDYWGQGTQVTVSS”, the “polyreactivity (PSR sort gate)” value is reported as “high polyreactivity”. For “QVQLVESGGGLVQAGGSLRLSCAASGRIFGTNAMGWYRQAPGKERELVATITRGGGNTYYADSVKGRFTISRDNAKNTVYLQMNSLKPEDTAVYYCAAKFNRFAWYSHYDYWGQGTLVTVSS”, the “polyreactivity (PSR sort gate)” value was “low polyreactivity”. With “QLQLVESGGGLVQAGGSLRLSCAASGRTFDSYAMGWYRQPPGKERELVAAIYADSVKGRFTISRDIAKNTVYLQMYSLTPEDSAVYYCAAETYSGQTYLGEYDYWGQGTQVTVSS” the “polyreactivity (PSR sort gate)” value was “low polyreactivity”. In the case of “QVQLVESGGGLVQAGGSLRLSCAASGRSFKKYAMGWYRQAPGKERELVAAITASGGSTYYADSVKGRYTISRDNAKNTVYLQMNSLTPEDTAVYYCAAYAYGVWHSQDGGNYWGQGTQVTVSS”, the “polyreactivity (PSR sort gate)” value is reported as “low polyreactivity”. In the case of “QVQLVESGGGLVQAGGSLRLSCAASGFTFIRYAMGWYRQAPGKERELVATITRRGGSTYYADSVTGRFTISRDNAKNTVYFQMNSLKPEDTAVYDCNRDYVTYGQYYYWGQGTQVTVSS”, the “polyreactivity (PSR sort gate)” value is reported as “high polyreactivity”. In the case of “QVQLVESGGGLVQAGGSLRLSCAASGITLGAYAMGWYRQAPGKERELVARIRIGGSTYYADSVKGRFTISRDNAKNTVYLQMNSLKPEDTAVYYCNRDFWYGVATGREFYLYDYWGQGTQVTVSS”, the “polyreactivity (PSR sort gate)” value is reported as “low polyreactivity”. With “QVQLVESGGGLVQAGGSLRLSCAASGSTYFRNAMGWYRQAPGKERELVAAISSSCGSTYYADSVKGRFTISRDNAKNTVYLQMTSLKPEDTAVYYCNADWYYAGYGYWGQGTQVTVSS” the “polyreactivity (PSR sort gate)” value was “low polyreactivity”. For “QVQLVESGGGLVQAGGSLRLSCAASGSTFNGNVMGWYRQAPGKERELVAGISKSGGTTYYADSVKGRFTISRDNAKNTVYLQMNSLKPEDTAVYYCAARGRVRYYPQYDYWGQGTQVTVSS”, the “polyreactivity (PSR sort gate)” value was “high polyreactivity”. For “QVQLVESGGGLVQAGGSLRLSCAASGRILPFNAMGWYRQAPGKERELVATITRRGGSTFYADSVKGRFTMSRDNAKNTVYLQMNSLKPEDTAVYYCAKTYWYVGSSRTYNYWGQGTQVTVSS”, the “polyreactivity (PSR sort gate)” value was “high polyreactivity”.
